Experimental data from article PMC2112137.

Experiments:
[1] = target: rabbit skeletal muscle F-actin (rabbit) (UniProt P68135); experiment: co-sedimentation
[2] = target: plasmodial actin of Physarum polycephalum (pure plasmodial F-actin) (Physarum polycephalum); experiment: light scattering
[3] = target: plasmodial actin of Physarum polycephalum (pure plasmodial F-actin) (Physarum polycephalum); experiment: co-sedimentation
[4] = target: F-actin-36,000-dalton factor complex (rabbit skeletal F-actin plus Physarum 36,000-dalton factor) (rabbit | Physarum polycephalum) (UniProt P68135); experiment: co-sedimentation

Question: Which results are given for “36,000-dalton factor (novel 36,000-dalton actin-binding protein from Physarum plasmodia) (natural protein)”?
Answer: factor/actin weight ratio in the pellet (g/g (factor/actin)) [1]: 0.12; stoichiometry N (mol actin per mol 36,000-dalton factor) [1]: 6.6

Question: Which HMM bound by 0.1 mg/ml F-actin (untreated actin) [2] does the source give for “heavy meromyosin (HMM) of rabbit skeletal muscle myosin (complex)” here?
Answer: 0.362 mg/mL

Question: And the stoichiometry N (mol actin monomer per mol HMM) [2]?
Answer: 2

Question: And the Actin/HMM binding ratio [3]?
Answer: 0.192 g/g

Question: What about the stoichiometry N (mol actin per mol HMM) [3] of the same substance?
Answer: 2

Question: For “rabbit skeletal muscle troponin (complex)”, which Bound TN (%) [4] is on record?
Answer: 25.8%
